Reference: paper PMC4117426, “SlmA Antagonism of FtsZ Assembly Employs a Two-pronged Mechanism like MinCD” (PLoS Genetics, 2014)

How the values were obtained:
[1] = biological target: T1, FtsZ-D86N (E. coli, UniProt P0A9A6 1-383, D86N); assay: BLI; biotinylated SBS17-30mer (50 nM) on streptavidin tips, loaded with 4 µM SlmA or SlmA mutant; FtsZ or variants (4 µM, preincubated with 1 mM GDP) or peptides (up to 320 µM) in solution; 1× Pol buffer, room temperature; details: both partners purified
T1 construct: FtsZ, E. coli, untagged, with D86N; pSEB160 derivative
T1 sequence (looked up): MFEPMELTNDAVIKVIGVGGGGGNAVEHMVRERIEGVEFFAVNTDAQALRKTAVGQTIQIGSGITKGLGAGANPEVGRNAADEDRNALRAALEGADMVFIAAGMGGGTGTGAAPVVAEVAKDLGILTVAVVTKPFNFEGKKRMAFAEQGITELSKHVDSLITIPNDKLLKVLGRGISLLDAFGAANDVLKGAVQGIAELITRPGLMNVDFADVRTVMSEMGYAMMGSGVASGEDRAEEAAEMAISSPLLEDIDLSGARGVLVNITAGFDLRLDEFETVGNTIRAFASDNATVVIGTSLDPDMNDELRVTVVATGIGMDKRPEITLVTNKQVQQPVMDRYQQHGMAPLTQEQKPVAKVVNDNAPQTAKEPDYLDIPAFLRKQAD

[2] = biological target: T2, FtsZ-K190V (E. coli, UniProt P0A9A6 1-383, K190V); assay: co-sedimentation; stable FtsZ polymers formed with GMPCPP (1 mM); proteins 5 µM, SBS17-30mer DNA 2 µM; Pol buffer (50 mM HEPES-NaOH pH 8.0, 200 mM KCl, 10 mM MgCl2); 80,000 rpm 15 min 25°C; supernatant and pellet by SDS-PAGE; details: both partners purified
T2 construct: FtsZ, E. coli, untagged, with K190V; pSEB160 derivative
T2 sequence (looked up): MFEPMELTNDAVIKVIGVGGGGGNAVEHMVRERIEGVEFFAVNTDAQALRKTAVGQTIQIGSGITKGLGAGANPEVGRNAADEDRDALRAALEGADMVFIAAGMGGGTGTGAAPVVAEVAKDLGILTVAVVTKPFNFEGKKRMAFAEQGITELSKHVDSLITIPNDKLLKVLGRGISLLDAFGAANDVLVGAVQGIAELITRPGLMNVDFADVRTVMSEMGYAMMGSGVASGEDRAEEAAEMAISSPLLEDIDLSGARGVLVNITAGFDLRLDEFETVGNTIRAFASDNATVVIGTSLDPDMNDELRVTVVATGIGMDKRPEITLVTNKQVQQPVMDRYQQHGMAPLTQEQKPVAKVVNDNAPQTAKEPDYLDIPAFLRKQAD

B1: 6×His-SlmA (natural protein, E. coli, UniProt P0C093 1-198, looked up)
chain: MAEKQTAKRNRREEILQSLALMLESSDGSQRITTAKLAASVGVSEAALYRHFPSKTRMFDSLIEFIEDSLITRINLILKDEKDTTARLRLIVLLLLGFGERNPGLTRILTGHALMFEQDRLQGRINQLFERIEAQLRQVLREKRMREGEGYTTDETLLASQILAFCEGMLSRFVRSEFKYRPTDDFDARWPLIAAQLQ
notes: SlmA, E. coli; also called SlmA-WT; His tagged SlmA; source: E. coli JS238/pQE80-slmA, purified (Ni-NTA)
B1: binds [1]; binds [2].
